The values below come from US20200190189A1.

The target of assay [1] is Human CD3 on T cells in donor PBMC (human) (UniProt P07766). In words: cell-based or functional assay.
In assay [2] the target is Human CD3εδ heterodimeric Fc fusion (human). In words: ForteBio BLI, Fab KD, monovalent. A general note: Biolayer interferometry detects binding as a change in optical thickness at a sensor tip.
Assay [3] deals with Cynomolgus CD3εδ heterodimeric Fc fusion (cynomolgus). In words: ForteBio BLI, Fab KD, monovalent.

Sequence of Human CD3 on T cells in donor PBMC (human) (P07766 23-207): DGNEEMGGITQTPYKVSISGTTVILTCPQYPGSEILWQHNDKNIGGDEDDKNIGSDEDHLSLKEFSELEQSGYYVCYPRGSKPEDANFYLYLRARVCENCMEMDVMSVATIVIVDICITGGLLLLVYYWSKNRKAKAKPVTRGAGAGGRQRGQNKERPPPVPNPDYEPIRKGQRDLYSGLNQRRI

B1: ADI-26954 Fab (Fab, from a related filing, V domains shown)
VH: QVQLVQSGAEVKKPGASVKVSCKASGFNIKDYYMHWVRQAPGQRLEWMGWIDLENANTIYDAKFQGRVTITRDTSASTAYMELSSLRSEDTAVYYCARDNYGGYFYDVWGQGTLVTVSS
VL: DIVMTQSPDSLAVSLGERATINCKSSQSLLESRTGKNYLAWYQQKPGQPPKLLIYWASTRESGVPDRFSGSGSGTDFTLTISSLQAEDVAVYYCKQSYSLRTFGGGTKVEIK
In assay [1], B1 showed a D5801 10 nM Fab IFNg of 0 pg/mL; a Fab IFNg, donor A4560 PBMC, 0.3 nM of 0 pg/mL; a Fab IFNg, donor A4560 PBMC, 10 nM of 0 pg/mL; a Fab IFNg, donor D5801 PBMC, 0.3 nM of 0 pg/mL.

B2: ADI-26941 Fab (Fab, from a related filing, V domains shown)
VH: QVQLVQSGAEVKKPGASVKVSCKASGFNIKDYYMHWVRQAPGQRLEWMGWIDLEEGNTIYDAKFQGRVTITRDTSASTAYMELSSLRSEDTAVYYCARDQYGRYFYDVWGQGTLVTVSS
VL: DIVMTQSPDSLAVSLGERATINCKSSQSLLNARTGKNYLAWYQQKPGQPPKLLIYWASTRESGVPDRFSGSGSGTDFTLTISSLQAEDVAVYYCKQSYSIRTFGGGTKVEIK
On to B2, for which the Kd (as a rule, a measure of binding affinity in units of concentration) was found to be 1100 nM in assay [2] and 220 nM in assay [3]. Moreover, the D5801 10 nM Fab IFNg in assay [1] worked out at 0 pg/mL.

B3: ADI-26928 Fab (Fab, from a related filing, V domains shown)
VH: QVQLVQSGAEVKKPGASVKVSCKASGFNIKDYYMHWVRQAPGQRLEWMGWIDLEEGNTIYDAKFQGRVTITRDTSASTAYMELSSLRSEDTAVYYCGRDAYGLYFYDVWGQGTLVTVSS
VL: DIVMTQSPDSLAVSLGERATINCKSSQSLLNARTGKNYLAWYQQKPGQPPKLLIYWASTRESGVPDRFSGSGSGTDFTLTISSLQAEDVAVYYCKQSYSLRTFGGGTKVEIK
B3 came in with a Fab IFNg, donor D5801 PBMC, 10 nM in assay [1] of 0 pg/mL.
